From US20060140858A1, “Drug pre-targeting by means of bi-specific antibodies and hapten constructs comprising a carrier peptide and the active agent(s)” (Immunomedics, Inc., priority 2002, published 2006)

Assays:
[1] = Biodistribution of In-111 IMP 224 in BALB/c mice; type: in vivo
Procedure: Kits were reconstituted with 400 μCi In-111 in 0.5 mL water.

[2] = In-vivo stability and clearance of IMP 224; design: species or system mouse
Procedure: Kits were reconstituted with 4 mCi In-111 in 0.5 mL water. The In-111 kit was incubated at room temperature for 10 min and then diluted with 0.5 mL of the cold indium containing 0.5 M pH 7.2 acetate buffer.

[3] = Pretargeting: I-125 F6 × 734-F(ab′)2, 72 h later In-111-IMP-224, biodistribution; details: female, NCRNU nude, mouse, in vivo, 10 uCi, total radioactivity, tumor-to-normal organ ratio

In the case of COc1cccc2c1C(=O)c1c(O)c3c(c(O)c1C2=O)C[C@@](O)(C(CO)=NNc1ccc(C(=O)N[C@@H](CCCCNC(=O)CN(CCN(CCN(CC(=O)O)CC(=O)O)CC(=O)O)CC(=O)O)C(=O)N[C@@H](Cc2ccc(O)cc2)C(=O)N[C@@H](CCCCNC(=O)CN(CCN(CCN(CC(=O)O)CC(=O)O)CC(=O)O)CC(=O)O)C(N)=O)cc1)C[C@@H]3O[C@H]1C[C@H](N)[C@H](O)[C@H](C)O1 [IMP 224, Dox = N—NH—C6H4—CO-Lys(DTPA)-Tyr-Lys(DTPA)-NH2], the tissue uptake at 0.5 h ([1]; BALB/c, mouse, 20 uCi, total radioactivity, Blood, 30 min) is reported as 1.44 ± 0.28 %ID/g, the tissue uptake at 1 h ([1]; BALB/c, mouse, 20 uCi, total radioactivity, Blood, 1 hr) is reported as 0.54 ± 0.12 %ID/g and the tissue uptake at 2 h ([1]; BALB/c, mouse, 20 uCi, total radioactivity, Blood, 2 hr) is reported as 0.12 ± 0.01 %ID/g. The tissue uptake at 4 h ([1]; BALB/c, mouse, 20 uCi, total radioactivity, Blood, 4 hr) was 0.1 ± 0.01 %ID/g, the tissue uptake at 24 h ([1]; BALB/c, mouse, 20 uCi, total radioactivity, Blood, 24 hr) was 0.02 %ID/g and the tissue uptake at 0.5 h ([1]; BALB/c, mouse, 20 uCi, total radioactivity, Kidney, 30 min) was 8.45 ± 1.79 %ID/g. For the same compound, the tissue uptake at 1 h ([1]; BALB/c, mouse, 20 uCi, total radioactivity, Kidney, 1 hr) was 5.36 ± 1.01 %ID/g, the tissue uptake at 2 h ([1]; BALB/c, mouse, 20 uCi, total radioactivity, Kidney, 2 hr) was 3.75 ± 0.52 %ID/g and the tissue uptake at 4 h ([1]; BALB/c, mouse, 20 uCi, total radioactivity, Kidney, 4 hr) was 4.03 ± 0.45 %ID/g. The tissue uptake at 24 h ([1]; BALB/c, mouse, 20 uCi, total radioactivity, Kidney, 24 hr) was 2.12 ± 0.17 %ID/g, the tissue uptake at 0.5 h ([1]; BALB/c, mouse, 20 uCi, total radioactivity, Liver, 30 min) was 0.57 ± 0.04 %ID/g and the tissue uptake at 1 h ([1]; BALB/c, mouse, 20 uCi, total radioactivity, Liver, 1 hr) was 0.31 ± 0.03 %ID/g. For the same compound, the tissue uptake at 2 h ([1]; BALB/c, mouse, 20 uCi, total radioactivity, Liver, 2 hr) was 0.17 ± 0.03 %ID/g, the tissue uptake at 4 h ([1]; BALB/c, mouse, 20 uCi, total radioactivity, Liver, 4 hr) was 0.17 ± 0.01 %ID/g and the tissue uptake at 24 h ([1]; BALB/c, mouse, 20 uCi, total radioactivity, Liver, 24 hr) was 0.13 ± 0.02 %ID/g. It also gave a tissue uptake at 0.5 h ([1]; BALB/c, mouse, 20 uCi, total radioactivity, Lungs, 30 min) of 1.61 ± 0.34 %ID/g, a tissue uptake at 1 h ([1]; BALB/c, mouse, 20 uCi, total radioactivity, Lungs, 1 hr) of 0.99 ± 0.26 %ID/g and a tissue uptake at 2 h ([1]; BALB/c, mouse, 20 uCi, total radioactivity, Lungs, 2 hr) of 0.25 ± 0.02 %ID/g. The tissue uptake at 4 h ([1]; BALB/c, mouse, 20 uCi, total radioactivity, Lungs, 4 hr) was 0.17 ± 0.02 %ID/g, the tissue uptake at 24 h ([1]; BALB/c, mouse, 20 uCi, total radioactivity, Lungs, 24 hr) was 0.09 ± 0.02 %ID/g and the tissue uptake at 0.5 h ([1]; BALB/c, mouse, 20 uCi, total radioactivity, Muscle, 30 min) was 0.51 ± 0.19 %ID/g. It also gave a tissue uptake at 1 h ([1]; BALB/c, mouse, 20 uCi, total radioactivity, Muscle, 1 hr) of 0.21 ± 0.08 %ID/g, a tissue uptake at 2 h ([1]; BALB/c, mouse, 20 uCi, total radioactivity, Muscle, 2 hr) of 0.03 ± 0.02 %ID/g and a tissue uptake at 4 h ([1]; BALB/c, mouse, 20 uCi, total radioactivity, Muscle, 4 hr) of 0.02 %ID/g. It also gave a tissue uptake at 24 h ([1]; BALB/c, mouse, 20 uCi, total radioactivity, Muscle, 24 hr) of 0.01 %ID/g, a tissue uptake at 0.5 h ([1]; BALB/c, mouse, 20 uCi, total radioactivity, Spleen, 30 min) of 0.57 ± 0.18 %ID/g and a tissue uptake at 1 h ([1]; BALB/c, mouse, 20 uCi, total radioactivity, Spleen, 1 hr) of 0.27 ± 0.06 %ID/g. The tissue uptake at 2 h ([1]; BALB/c, mouse, 20 uCi, total radioactivity, Spleen, 2 hr) was 0.12 ± 0.01 %ID/g, the tissue uptake at 4 h ([1]; BALB/c, mouse, 20 uCi, total radioactivity, Spleen, 4 hr) was 0.11 ± 0.01 %ID/g and the tissue uptake at 24 h ([1]; BALB/c, mouse, 20 uCi, total radioactivity, Spleen, 24 hr) was 0.07 %ID/g. It also gave a tissue uptake at 0.5 h ([1]; BALB/c, mouse, 20 uCi, total radioactivity, Stomach, 30 min) of 0.61 ± 0.07 %ID/g, a tissue uptake at 1 h ([1]; BALB/c, mouse, 20 uCi, total radioactivity, Stomach, 1 hr) of 0.15 ± 0.07 %ID/g and a tissue uptake at 2 h ([1]; BALB/c, mouse, 20 uCi, total radioactivity, Stomach, 2 hr) of 0.05 ± 0.01 %ID/g. It also gave a tissue uptake at 4 h ([1]; BALB/c, mouse, 20 uCi, total radioactivity, Stomach, 4 hr) of 0.06 ± 0.02 %ID/g, a tissue uptake at 24 h ([1]; BALB/c, mouse, 20 uCi, total radioactivity, Stomach, 24 hr) of 0.04 ± 0.02 %ID/g and a tissue uptake at 0.5 h ([1]; BALB/c, mouse, 20 uCi, total radioactivity, Tail, 30 min) of 3.66 ± 0.43 %ID/g. For the same compound, the tissue uptake at 1 h ([1]; BALB/c, mouse, 20 uCi, total radioactivity, Tail, 1 hr) was 1.9 ± 0.09 %ID/g, the tissue uptake at 2 h ([1]; BALB/c, mouse, 20 uCi, total radioactivity, Tail, 2 hr) was 0.46 ± 0.09 %ID/g and the tissue uptake at 4 h ([1]; BALB/c, mouse, 20 uCi, total radioactivity, Tail, 4 hr) was 0.24 ± 0.03 %ID/g. For the same compound, the tissue uptake at 24 h ([1]; BALB/c, mouse, 20 uCi, total radioactivity, Tail, 24 hr) was 0.58 ± 0.22 %ID/g, the excreta dose per gram or mL at 2 h ([1]; BALB/c, mouse, 20 uCi, total radioactivity, Urine, 2 hr) was 19.1 %ID/g and the excreta dose per gram or mL at 4 h ([1]; BALB/c, mouse, 20 uCi, total radioactivity, Urine, 4 hr) was 1.72 ± 0.67 %ID/g. The excreta dose per gram or mL at 24 h ([1]; BALB/c, mouse, 20 uCi, total radioactivity, Urine, 24 hr) was 0.42 ± 0.18 %ID/g, the tissue uptake at 0.5 h ([1]; BALB/c, mouse, large intestine, 20 uCi, total radioactivity, Large Int., 30 min) was 0.59 ± 0.43 %ID/g and the tissue uptake at 1 h ([1]; BALB/c, mouse, large intestine, 20 uCi, total radioactivity, Large Int., 1 hr) was 0.18 ± 0.04 %ID/g. For the same compound, the tissue uptake at 2 h ([1]; BALB/c, mouse, large intestine, 20 uCi, total radioactivity, Large Int., 2 hr) was 0.38 ± 0.15 %ID/g, the tissue uptake at 4 h ([1]; BALB/c, mouse, large intestine, 20 uCi, total radioactivity, Large Int., 4 hr) was 0.3 ± 0.06 %ID/g and the tissue uptake at 24 h ([1]; BALB/c, mouse, large intestine, 20 uCi, total radioactivity, Large Int., 24 hr) was 0.08 ± 0.03 %ID/g. The tissue uptake at 0.5 h ([1]; BALB/c, mouse, small intestine, 20 uCi, total radioactivity, Small Int., 30 min) was 0.72 ± 0.08 %ID/g, the tissue uptake at 1 h ([1]; BALB/c, mouse, small intestine, 20 uCi, total radioactivity, Small Int., 1 hr) was 0.37 ± 0.19 %ID/g and the tissue uptake at 2 h ([1]; BALB/c, mouse, small intestine, 20 uCi, total radioactivity, Small Int., 2 hr) was 0.09 ± 0.01 %ID/g. The tissue uptake at 4 h ([1]; BALB/c, mouse, small intestine, 20 uCi, total radioactivity, Small Int., 4 hr) was 0.09 ± 0.03 %ID/g, the tissue uptake at 24 h ([1]; BALB/c, mouse, small intestine, 20 uCi, total radioactivity, Small Int., 24 hr) was 0.05 ± 0.01 %ID/g and the “% ID/g” value ([1]; Urine, 30 min) was 1553 % ID/g. For the same compound, the “% ID/g” value ([1]; Urine, 1 hr) was 1400 ± 421 % ID/g, the “Activity Recovered” value ([2]; Serum, 30 min, Animal #1) was 1.92 µCi and the “Activity Recovered” value ([2]; Serum, 30 min, Animal #2) was 3.64 µCi. For the same compound, the “Activity Recovered” value ([2]; Serum, 1 hr, Animal #1) was 1.21 µCi, the “Activity Recovered” value ([2]; Serum, 1 hr, Animal #2) was 1.27 µCi and the “Activity Recovered” value ([2]; Urine, 30 min, Animal #1) was 220 µCi. The “Activity Recovered” value ([2]; Urine, 30 min, Animal #2) was 133 µCi, the “Activity Recovered” value ([2]; Urine, 1 hr, Animal #1) was 41.1 µCi and the “Activity Recovered” value ([2]; Urine, 1 hr, Animal #2) was 273 µCi. The dose excreted ([2]; mouse, urine, 400 uCi, read-out: renal excretion) was roughly 100%, the “integrity of excreted peptide (reverse phase HPLC)” value ([2]; urine) was “excreted intact in the urine” and the “antibody binding of urine activity (size exclusion HPLC)” value ([2]; urine, 30 min and 1 hr) was “could still bind to the antibody”. For the same compound, the tissue to tissue ratio at 1 h ([3]; GW-39, 1 h) was 1, the tissue to tissue ratio at 4 h ([3]; GW-39, 4 h) was 1 and the tissue to tissue ratio at 24 h ([3]; GW-39, 24 h) was 1.
